The results in this text go back to patent publication US20120100142A1 (VANDERBILT UNIVERSITY, published 2012).

The EC50 (read off the curve) is the concentration needed to bring the measured effect to its halfway point. High values mean a less potent agent, low ones a more potent agent. Broadly, the Kd is the concentration at which binding is half-saturated. A word on the koff: it is a measure of how fast the partners let go of each other. For orientation: kon means a measure of how fast the partners come together.

B1: mAb 1I20 (antibody, V domains shown)
VH: EVQLVESGGGVVQPGGSLRLSCIASAFNLGIFGMHWVRQAPGKGLEWVAFIRYDGGKTFYADSVKGRFTISRDNSKNTLYLQMNSLRTEDTALYYCARDATADYYGPGSYPNWLDPWGQGTLVTVS
VL: DIRLTQSPATLSVSPGERATLSCRASHSVSRNLAWYQQKPGRAPRLLVYDTSSRATGIPARFSGSGSGTEFTLTISSLQSEDFAVYYCQQYNNWPRTFGQGTKVDIK
B2: mAb 2B12 (antibody, V domains shown)
VH: EVQLQESGPGLVKPSQTLSLTCNVSGGSITGDYKWSWIRQPPGKGLEWIGHIHSTGTTYYNPSLRSRITISMDTSKNNLSLRLTSVTAADTAVYYCASHTLTSGHYPRDFDFWGQGTLVTVSS
VL: SYVLTQPPSVSGTPGQRVIISCSGYSSNIGSNTVNWYQQFPGTAPRLLIYANNQRPPGVPDRFSGSKSGTSASLAISGLQSDDESDYYCAAWDDSLNGHWVFGGGTKLTVLG
B3: mAb 4D20 (antibody, V domains shown)
VH: EVQLVESGPVLVKPTETLTVTCTVSGFSVDNDRMGVSWIRQPPGKALEWLAHIFSNDEKSYSTSLRSRLTISKDTSKRQVVLSMTDMDPVDTATYYCARAPSEYAAMDVWGQGTMVTVS
VL: SYVLTQPPSVSVAPGETATVTCGGNNIGSKSVHWYQQKPGQAPVVVIYYDGDRPSGIPERFSGSNSGDTATLTISRVEAGDEADYYCLVWDYTSVHYVFGTGTKVTVLG
B4: mAb 2D1 (antibody, V domains shown)
VH: EVQLVESGPALVKPTQTLTLTCSFSGFSLSTSGMSVSWIRQPPGKALEWLALIDWDDDTYYITYSSSLKTRLTISKDTSKSQVVLTMTNMDPVDTATYYCARTLRVSGDYVRDFDLWGRGTLVTVS
VL: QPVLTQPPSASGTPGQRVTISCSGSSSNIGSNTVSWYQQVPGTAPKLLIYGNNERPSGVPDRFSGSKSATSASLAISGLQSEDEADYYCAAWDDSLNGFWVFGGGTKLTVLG
B5: mAb 1F1 (antibody, V domains shown)
VH: EVQLVQSGGGVVQPRRSLRLSCAASGFTFSSYAMHWVRQAPGKGLEWVAVISYDGRNKYYADSVKGRFTVSRDNSKNTLYLQMNSLRAEDTSVYYCARELLMDYYDHIGYSPGPTWGQGTLVTVSS
VL: QPVLTQPPSASGSPGQRVTISCSGSSSNIGSYTVNWYQQLPGTAPKLLIYSLNQRPSGVPDRFSGSKSGTSASLAISGLQSEDEAVYYCAAWDDSLSAHVVFGGGTKLTVLG

The target in the first test is T1, 1918 HA displayed on 1918 virus-like particles, reconstituted 1918 virus or transfected cells (influenza A/South Carolina/1/1918 …, UniProt Q9WFX3 18-566). The test is described as follows: cell-based or functional assay.
T1 sequence (Q9WFX3 18-566): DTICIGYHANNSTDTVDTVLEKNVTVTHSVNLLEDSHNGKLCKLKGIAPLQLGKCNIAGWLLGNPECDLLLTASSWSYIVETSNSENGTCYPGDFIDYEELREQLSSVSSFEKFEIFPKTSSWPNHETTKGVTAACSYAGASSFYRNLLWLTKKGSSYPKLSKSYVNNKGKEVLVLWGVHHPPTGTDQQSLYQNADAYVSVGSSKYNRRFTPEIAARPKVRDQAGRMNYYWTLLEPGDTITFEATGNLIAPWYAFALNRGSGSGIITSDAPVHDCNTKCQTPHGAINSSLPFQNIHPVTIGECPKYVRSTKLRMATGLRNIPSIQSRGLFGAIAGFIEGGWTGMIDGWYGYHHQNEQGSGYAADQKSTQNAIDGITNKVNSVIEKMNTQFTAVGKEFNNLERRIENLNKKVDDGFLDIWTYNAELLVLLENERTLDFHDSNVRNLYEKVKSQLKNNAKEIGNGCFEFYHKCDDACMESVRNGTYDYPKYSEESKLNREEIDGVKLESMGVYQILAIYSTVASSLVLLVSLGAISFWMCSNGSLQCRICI
Take B1: the “Specific HAI activity” value came to 0.16 µg/mL.
On to B2, for which the “Specific HAI activity” value was 0.31 µg/mL.
For B3, the “Specific HAI activity” value was found to be 0.04 µg/mL.
For the molecule B4, the “Specific HAI activity” value was 0.01 µg/mL.
In the case of B5, the “Specific HAI activity” value is 0.08 µg/mL.

Another test concerns the target T1, 1918 HA displayed on 1918 virus-like …. Kind of test: cell-based or functional assay. The source holds these as a separate data set.
In the case of B1, the “HAI, specific activity of indicated mAb” value turned out to be 0.28 µg/mL.
The same measure, in the same setting: with B2 the figure was 0.32 µg/mL.
The same measure, in the same setting: then B3, with 0.04 µg/mL; and B4, with 0.025 µg/mL.
Still for that read-out and setting: then B5, with 0.04 µg/mL.

The target is the same in a further test.
Assay: not given
Turning to B2, the “EC50 (read off the curve)” value is roughly 0.02 µg/mL.

The target in a further test is Recombinant A/South Carolina/1/1918 virus HA (influenza A/South Carolina/1/1918 …, UniProt Q9WFX3 18-520).
Recombinant A/South Carolina/1/1918 virus HA, sequence (Q9WFX3 18-520 limits assumed): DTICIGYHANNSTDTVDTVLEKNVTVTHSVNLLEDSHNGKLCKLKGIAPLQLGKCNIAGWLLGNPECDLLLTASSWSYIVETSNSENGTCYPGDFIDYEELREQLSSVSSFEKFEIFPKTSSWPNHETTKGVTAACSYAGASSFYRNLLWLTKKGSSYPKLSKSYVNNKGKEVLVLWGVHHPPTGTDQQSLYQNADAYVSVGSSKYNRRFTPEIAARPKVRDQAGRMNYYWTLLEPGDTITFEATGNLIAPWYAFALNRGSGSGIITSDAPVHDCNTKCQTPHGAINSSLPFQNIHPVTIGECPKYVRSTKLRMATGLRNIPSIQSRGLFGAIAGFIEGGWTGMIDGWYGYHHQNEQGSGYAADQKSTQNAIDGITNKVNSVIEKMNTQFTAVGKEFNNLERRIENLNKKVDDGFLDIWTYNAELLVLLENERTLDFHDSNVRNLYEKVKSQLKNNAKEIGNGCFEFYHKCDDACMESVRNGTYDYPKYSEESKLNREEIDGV
Assay: not given
As to B1, the Kd stood at 0.048 nM, the off-rate constant (koff) turned out to be 1.4e-05 s⁻¹ and the kon was found to be 290000 M⁻¹ s⁻¹.
Turning to B2, the Kd is 6.2 nM, the dissociation rate constant (koff) is 0.00012 s⁻¹ and the kon is 18000 M⁻¹ s⁻¹.
For B3, in that order: 0.14 nM, 1e-05 s⁻¹ and 170000 M⁻¹ s⁻¹.
Consider B4, for which the equilibrium dissociation constant (Kd) is 0.25 nM, the dissociation rate constant (koff) turned out to be 1e-05 s⁻¹ and the on-rate constant (kon) was 39000 M⁻¹ s⁻¹.
For B5, in that order: 5.4 nM, 0.00017 s⁻¹ and 31000 M⁻¹ s⁻¹.
